From publication PMC3376909 (Molecular Microbiology, 2012) come the findings set out here.

For this assay, the target named is T1, MinD-N45A (purified) (E. coli, UniProt P0AEZ3 1-270, N45A).
T1 sequence (looked up): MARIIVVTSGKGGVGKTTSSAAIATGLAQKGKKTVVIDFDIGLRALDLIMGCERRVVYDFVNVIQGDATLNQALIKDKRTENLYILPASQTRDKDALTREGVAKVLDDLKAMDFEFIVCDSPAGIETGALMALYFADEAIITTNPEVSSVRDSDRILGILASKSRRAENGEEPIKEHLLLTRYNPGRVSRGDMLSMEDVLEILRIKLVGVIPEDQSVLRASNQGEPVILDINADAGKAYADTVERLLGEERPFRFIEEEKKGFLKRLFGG
Description: co-sedimentation.

B1: MinE-his (purified) (natural protein, E. coli, UniProt P0A734 1-88, looked up)
chain: MALLDFFLSRKKNTANIAKERLQIIVAERRRSDAEPHYLPQLRKDILEVICKYVQIDPEMVTVQLEQKDGDISILELNVTLPEAEELK
On to B1, for which the binding result was “binds”.

B2: MalE-MinC (natural protein, E. coli, UniProt P18196 1-231, looked up)
chain: MSNTPIELKGSSFTLSVVHLHEAEPKVIHQALEDKIAQAPAFLKHAPVVLNVSALEDPVNWSAMHKAVSATGLRVIGVSGCKDAQLKAEIEKMGLPILTEGKEKAPRPAPTPQAPAQNTTPVTKTRLIDTPVRSGQRIYAPQCDLIVTSHVSAGAELIADGNIHVYGMMRGRALAGASGDRETQIFCTNLMAELVSIAGEYWLSDQIPAEFYGKAARLQLVENALTVQPLN
For the molecule B2, the binding result was “binds”.
